These results are taken from PMC4591102 (European journal of nuclear medicine and molecular imaging, 2015).

Read-outs that look alike come from different tables or passages of the source. Bounds are passed on as bounds.

As a reminder, the IC50 is the concentration at which inhibition is half-maximal. A low value points to higher potency. As a reminder, the tissue uptake is the share of the injected amount in each gram of the tissue. The half-life is how long it takes for the measured level to halve. The low end stands for fast loss, the high end for slow loss. A word on the logP: it is the decadic logarithm of the partition coefficient of the neutral form, usually between octanol and water. Read a high logP as higher lipophilicity.

Series [1] addresses integrin αvβ3 (Homo sapiens, UniProt P05106+P06756). Nature of the series: Competitive cell binding assay with ^125I-echistatin in U87MG cells.
Series [2] can be described thus: Serum stability by radio-HPLC. It counts as in vitro ADME, mouse.
Series [3] can be described thus: Longitudinal static PET with ROI analysis in U87MG tumor-bearing mice. On the set-up: species or system athymic nude mice. Conditions: mouse, in vivo.
Series [4] can be described thus: Dynamic PET. On the set-up: species or system athymic nude mice. To be noted: mouse, in vivo; for half-life: iv.
Series [5] can be described thus: Octanol-water partition coefficient. It counts as physicochemical.
Series [6] can be described thus: Metabolic stability in urine by radio-HPLC. The series is classed as in vivo, ICR mice.
Series [7] in a line: Ex vivo biodistribution at 4 h p.i. On the set-up: species or system athymic nude mice. Conditions: mouse, in vivo.
The conditions of series [8]: mouse, U87MG tumor, 10 mg/kg.
A short description of series [9]: in vivo. To be noted: both, athymic nude, mouse, tumor, 10 mg/kg, total radioactivity.

In [1], `N=C(N)NCCC[C@@H]1NC(=O)[C@H](CCCCNC(=S)Nc2ccc(CC3CN(CC(=O)O)CCN(CC(=O)O)CCN3CC(=O)O)cc2)NC(=O)[C@@H](Cc2ccccc2)NC(=O)[C@H](CC(=O)O)NC(=O)CNC1=O` (stereo partly drawn) [NOTA-c(RGDfK)] yielded a concentration for half-maximal inhibition (IC50) of 507 ± 62 nM.
With `N=C(N)NCCC[C@@H]1NC(=O)[C@H](CCCCNC(=O)COCCOCCNC(=O)COCCOCCNC(=S)Nc2ccc(C[C@H]3CN(CC(=O)O)CCN(CC(=O)O)CCN3CC(=O)O)cc2)NC(=O)[C@@H](Cc2ccccc2)NC(=O)[C@H](CC(=O)O)NC(=O)CNC1=O` [^64Cu-NOTA-(PEG)2-c(RGDfK), metal not drawn], the “fraction remaining intact in serum” value in series [2] (mouse, serum, 4 h) is on record as greater than 95%. In series [3], this molecule returned a tissue uptake at 0.5 h of 3.62 ± 0.21 %ID/g. In [4], this molecule displayed a tissue uptake of roughly 4 %ID/g and a half-life of 4.76 min. The same molecule gave a log partition coefficient (logP) in series [5] of -2.82 ± 0.06. Moreover, in series [6] (mouse, in vivo), the “radioactive metabolites in urine” value was “not observed”. In [7], this molecule yielded a tissue uptake at 4 h of 2.36 ± 0.31 %ID/g.
Consider `N=C(N)NCCC[C@@H]1NC(=O)[C@H](CCCCNC(=O)[C@H]2O[C@@H](CNC(=O)[C@H]3O[C@@H](CNC(=O)[C@H]4O[C@@H](CNC(=O)[C@H]5O[C@@H](CNC(=O)CCOCCOCCOCCOCCNC(=S)Nc6ccc(C[C@H]7CN(CC(=O)O)CCN(CC(=O)O)CCN7CC(=O)O)cc6)[C@H](O)[C@@H](O)[C@H]5O)[C@H](O)[C@@H](O)[C@H]4O)[C@H](O)[C@@H](O)[C@H]3O)[C@H](O)[C@@H](O)[C@H]2O)NC(=O)[C@@H](Cc2ccccc2)NC(=O)[C@H](CC(=O)O)NC(=O)CNC1=O` [^64Cu-NOTA-PEG4-SAA4-c(RGDfK), metal not drawn], for which, in [2] (1 or 4 h incubation in mouse serum at 37°C), the “fraction remaining intact in serum” value is greater than 95%. For the same molecule, the tissue uptake at 0.5 h in series [3] (5.5 MBq, U87MG tumor uptake, PET, 0.5 h p.i.) came to 2.5 ± 0.18 %ID/g; in series [8] it was 0.42 ± 0.14 %ID/g. The tissue uptake at 2 h is 1.77 ± 0.38 %ID/g in series [3] (5.5 MBq, U87MG tumor uptake, PET, 2 h p.i., n = 3) and 0.24 ± 0.06 %ID/g in series [8]. The tissue uptake at 4 h in series [3] (5.5 MBq, U87MG tumor uptake, PET, 4 h p.i., n = 3) amounted to 1.67 ± 0.38 %ID/g; in series [8], 0.18 ± 0.03 %ID/g; in [7] (10 mg/kg, kidney uptake, ex vivo, with blocking, 4 h p.i., blocking group, c(RGDyK) 10 mg/kg) it was 1.78 ± 1.04 %ID/g; in series [7] (5.5 MBq, U87MG tumor uptake, ex vivo, 4 h p.i., γ-counter) it was 1.14 ± 0.26 %ID/g; in [7] (5.5 MBq, kidney uptake, ex vivo, 4 h p.i., positive (unblocked) group) it was 0.96 ± 0.12 %ID/g. For the same molecule, the values for the tissue uptake in [4] (5.5 MBq) and in series [9] were roughly 4 %ID/g and 10 %ID/g, respectively. For the same molecule, the half-life in [4] (5.5 MBq) is 4.07 min. In [5], the logP is -3.4 ± 0.05. For the same molecule, the “radioactive metabolites in urine” value in series [6] (urine collected 1 h after administration) was “not observed”.
In turn, `N=C(N)NCCC[C@@H]1NC(=O)[C@H](CCCCNC(=S)Nc2ccc(CC3CN(CC(=O)O)CCN(CC(=O)O)CCN3CC(=O)O)cc2)NC(=O)[C@@H](Cc2ccccc2)NC(=O)[C@H](CC(=O)O)NC(=O)CNC1=O` (stereo partly drawn) [^64Cu-NOTA-c(RGDfK), metal not drawn] came in with a tissue uptake at 0.5 h in series [3] of 4.78 ± 0.74 %ID/g. For the same molecule, the half-life in series [4] amounted to 2.56 min. The same molecule displayed a lipophilicity (logP) in series [5] of -2.65 ± 0.01. Further, the tissue uptake at 4 h in [7] was 2.98 ± 0.52 %ID/g.
